Values of other authors as cited in article PMC5302535.

Target: transferrin receptor (TfR) (Homo sapiens) (UniProt P02786)
Sequence (P02786 89-760): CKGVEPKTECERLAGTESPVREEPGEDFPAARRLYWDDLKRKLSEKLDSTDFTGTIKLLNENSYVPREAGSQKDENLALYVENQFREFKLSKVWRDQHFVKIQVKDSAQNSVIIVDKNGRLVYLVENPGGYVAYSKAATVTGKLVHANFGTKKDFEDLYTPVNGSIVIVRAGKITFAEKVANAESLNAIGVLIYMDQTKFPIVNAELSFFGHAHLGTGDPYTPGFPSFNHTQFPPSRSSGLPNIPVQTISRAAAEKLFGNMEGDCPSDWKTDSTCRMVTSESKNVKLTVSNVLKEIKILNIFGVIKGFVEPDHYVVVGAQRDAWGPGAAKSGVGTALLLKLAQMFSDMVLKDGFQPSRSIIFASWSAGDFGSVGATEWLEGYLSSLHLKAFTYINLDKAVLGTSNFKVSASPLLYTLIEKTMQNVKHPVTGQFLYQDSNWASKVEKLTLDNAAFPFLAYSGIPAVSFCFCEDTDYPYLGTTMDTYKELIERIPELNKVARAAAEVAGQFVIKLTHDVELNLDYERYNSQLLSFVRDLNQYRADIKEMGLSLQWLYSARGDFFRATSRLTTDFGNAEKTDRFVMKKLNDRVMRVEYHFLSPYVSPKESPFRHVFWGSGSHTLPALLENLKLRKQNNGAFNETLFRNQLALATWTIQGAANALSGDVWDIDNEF

Kd: 0.01 µM
Substance: T7 peptide
